Source: patent US6380162B1, “Ice inhibiting peptides” (Applied Research Systems ARS Holding N.V., priority 1999, dated 2002)

Tests used:
[1] = target: T1, ICE (Homo sapiens, UniProt P29466); assay: Inhibition of ICE cleavage of pIL-1β, SDS-PAGE and Western blotting; format: biochemical; set-up: expressed in transfected cells; host or cells: COS-7 cells transfected with pSG5-ICE cDNA, or alternatively lysate of freshly isolated human monocytes; settings: pIL-1β 5 ng incubated with ICE; peptides 100, 300 or 1,000 μM; Western blotting
T1 sequence (P29466 120-404): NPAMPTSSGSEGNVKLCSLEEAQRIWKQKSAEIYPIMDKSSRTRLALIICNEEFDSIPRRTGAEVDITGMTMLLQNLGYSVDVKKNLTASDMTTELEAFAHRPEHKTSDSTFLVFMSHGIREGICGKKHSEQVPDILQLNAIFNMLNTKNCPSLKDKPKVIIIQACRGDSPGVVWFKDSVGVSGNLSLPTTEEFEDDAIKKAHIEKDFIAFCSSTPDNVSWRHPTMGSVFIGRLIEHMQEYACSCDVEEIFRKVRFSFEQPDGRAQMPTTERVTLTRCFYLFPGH
Protocol: cDNA coding for human ICE has been amplified by PCR. The sequence was confirmed and the cDNA was subcloned into pSG5 expression vector. COS cells were transfected with empty vector (mock) or vector containing ICE cDNA and after 48 hours, cells were analysed for the expression of ICE specific mRNA.
A monocyte lysate, prepared as previously described (11), was also able to convert pIL-1β into a mature form (FIG. 2). Therefore, recombinant ICE or freshly isolated human monocytes were used as a source of ICE enzymatic activity for further experiments.
A source of ICE activity was prepared and its ability to cleave pIL-1β was tested by incubating the reaction at 37° C. for 1 hour. The mixture was then run on SDS-PAGE and the presence of pIL1-β or the mature form was evidenced by Western Blotting.

[2] = target: Human recombinant IL-1β precursor, P01584
Chain of Human recombinant IL-1β precursor, P01584 (P01584 whole entry, looked up): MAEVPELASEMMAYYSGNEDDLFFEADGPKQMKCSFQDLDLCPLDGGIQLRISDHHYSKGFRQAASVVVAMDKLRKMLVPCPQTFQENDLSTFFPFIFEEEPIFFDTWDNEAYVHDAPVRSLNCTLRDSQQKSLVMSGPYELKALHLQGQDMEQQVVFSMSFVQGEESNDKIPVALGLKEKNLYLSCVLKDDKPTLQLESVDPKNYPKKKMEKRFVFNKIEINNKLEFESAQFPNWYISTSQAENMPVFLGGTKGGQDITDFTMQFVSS

With “peptide C: SEQ ID NO:4, designed on the basis of icIL-1raII sequence (MALADLYEEGGGGGGEGEDNADSK)” the “inhibition of ICE activity (FIG. 6)” value [1] was “inhibition of ICE activity”.

“peptide S: SEQ ID NO:5, identical to peptide C except for two Ala substituting the two Asp residues (MALAALYEEGGGGGGEGEDNAASK)” was tested, and the “inhibition of ICE activity (FIG. 6)” value [1] was “inhibition of ICE activity”.

B1: ICE (Interleukin-1β-Converting Enzyme), human (protein)
chain: MADKVLKEKRKLFIRSMGEGTINGLLDELLQTRVLNKEEMEKVKRENATVMDKTRALIDSVIPKGAQACQICITYICEEDSYLAGTLGLSADQTSGNYLNMQDSQGVLSSFPAPQAVQDNPAMPTSSGSEGNVKLCSLEEAQRIWKQKSAEIYPIMDKSSRTRLALIICNEEFDSIPRRTGAEVDITGMTMLLQNLGYSVDVKKNLTASDMTTELEAFAHRPEHKTSDSTFLVFMSHGIREGICGKKHSEQVPDILQLNAIFNMLNTKNCPSLKDKPKVIIIQACRGDSPGVVWFKDSVGVSGNLSLPTTEEFEDDAIKKAHIEKDFIAFCSSTPDNVSWRHPTMGSVFIGRLIEHMQEYACSCDVEEIFRKVRFSFEQPDGRAQMPTTERVTLTRCFYLFPGH
For B1, the “conversion of pIL-1β into the mature form (Western blotting after 60 minutes at 37° C.)” value [2] was “A monocyte lysate, prepared as previously described (11), was also able to convert pIL-1β into a mature form”.
